Measured values reported in paper PMC12218921, “An adaptive peptide-binding site in ubiquitin receptor hRpn13 revealed by structural studies” (Nature Communications, 2025).
No end group written: not given here.

B1: hRpn2 (940–953) (peptide)
peptide: QEPEPPEPFEYIDD
notes: source: synthetic peptide (GenScript Biotech; for the fluorescence polarization assay bought: New England Peptide)
B2: hRpn13_ΔMTT (domain or fragment, human)
chain: GSSGALFPSLVPGSRGASNKYLVEFRAGKMSLKGTTVTPDKRKGLVYIQQTDDSLIHFCWKDRTSGNVEDDLIIFPDDCEFKRVPQCPSGRVYVLKFKAGSKRLFFWMQEPKTDQDEEHCRKVNEYLNNPPMPGALGASGSSGHELSAL
notes: hRpn13 (ADRM1), human, hRpn13 (1-150) without M1-T3; 15N-labelled for NMR; also called hRpn13 Pru variant with ENT M1 – T3, aG, and bP deleted; source: E. coli BL21 (DE3), purified (glutathione sepharose, thrombin cleavage, Superdex 75); not shown: GST, N-terminal, cleaved
B3: hRpn13 Pru (1–150) (domain or fragment, human)
chain: GPGSMTTSGALFPSLVPGSRGASNKYLVEFRAGKMSLKGTTVTPDKRKGLVYIQQTDDSLIHFCWKDRTSGNVEDDLIIFPDDCEFKRVPQCPSGRVYVLKFKAGSKRLFFWMQEPKTDQDEEHCRKVNEYLNNPPMPGALGASGSSGHELSAL
notes: four non-native residues (aG-bP-cG-dS) left at the N-terminus after PreScission cleavage of the purification tag; hRpn13 (ADRM1), human, residues 1-150 holding the Pru domain; 15N-labelled (M9 medium) for the NMR experiments, unlabelled (LB) for crystallography; S4-N20 are not seen in the electron density; also called hRpn13 (1–150); Pru-A; source: E. coli BL21(DE3) pLysS, purified (Talon resin, …)
B4: hRpn2 (944–953) (peptide)
peptide: PPEPFEYIDD
notes: source: bought: New England Peptide
B5: EDGEGEE peptide (peptide)
peptide: EDGEGEE
notes: acidic peptide chosen by the authors; also called acidic peptide; source: synthetic peptide (GenScript)
B6: TAMRA-labeled hRpn2 (940–953) (peptide)
peptide: QEPEPPEPFEYIDD
modifications: also: TAMRA attached, position not given here
notes: also called TAMRA-hRpn2; source: bought: New England Peptide

How the values were obtained:
[1] = molecular target: B2; test: fluorescence polarisation; competition: unlabeled peptide at various concentrations preincubated with 80 nM hRpn13_ΔMTT, then 10 nM TAMRA-hRpn2 (940–953) added; PBS with 1 mM TCEP, room temperature; [Inhibitor] vs response (three parameters) fit; estimated EC50; conditions: both partners purified
[2] = molecular target: B6; test: fluorescence polarisation; hRpn13_ΔMTT titrated against TAMRA-hRpn2 (940–953); PBS with 1 mM TCEP, room temperature; [Agonist] vs response (three parameters) fit; conditions: both partners purified
[3] = molecular target: T1, K48-diUb^D77 (human, UniProt P0CG48 1-76; P0CG48 1-76, K48R, G76 joined by an isopeptide bond to K48 of the other ubiquitin | K48 joined by an isopeptide bond to G76 of Ub-K48R); test: NMR titration; 1H-15N HSQC of 0.1 mM 15N-labeled hRpn13_ΔMTT alone and with unlabeled ligand (peptides at varying molar ratios up to 20-fold excess; hRpn2 (940-953) or ubiquitin equimolar, alone or together with 20-fold EDGEGEE; K48-diUb at 4:1, 2:1 and 1:1 hRpn13 to diUb); NMR buffer (20 mM sodium phosphate pH 6.5, 50 mM NaCl, 1 mM TCEP, 10% D2O), 25 °C, 600 MHz; conditions: both partners purified
T1 construct: Ub-K48R (distal, by the methods): ubiquitin, human; Ub-D77 (proximal, by the methods): ubiquitin, human; additional aspartate at position 77 (Ub-D77); Two ubiquitins joined covalently K48-G76; The results call the extended moiety distal, the methods call it proximal; also called K48-linked diubiquitin; source: made enzymatically (E1 from R&D Systems, E2-25K) from ubiquitin proteins expressed in …

[4] = molecular target: T2, K48-diUb^ENT (human, UniProt P0CG48 1-76; P0CG48 1-76, K48R, G76 joined by an isopeptide bond to K48 of the other ubiquitin | K48 joined by an isopeptide bond to G76 of Ub-K48R); test: as above; conditions: both partners purified
T2 construct: Ub-K48R (distal, by the methods): ubiquitin, human; Ub-ENT (proximal, by the methods): ubiquitin, human; 6-residue linker added to the ubiquitin C-terminal end; Two ubiquitins joined covalently K48-G76; The results call the extended moiety distal, the methods call it proximal; also called K48-linked diubiquitin with Ub-ENT; source: made enzymatically (E1 from R&D Systems, E2-25K) from ubiquitin …

[5] = molecular target: T3, K48-diUb^EDGEGEE (human, UniProt P0CG48 1-76; P0CG48 1-76, K48R, G76 joined by an isopeptide bond to K48 of the other ubiquitin | K48 joined by an isopeptide bond to G76 of Ub-K48R); test: as above; conditions: both partners purified
T3 construct: Ub-K48R (distal, by the methods): ubiquitin, human; Ub-EDGEGEE (proximal, by the methods): ubiquitin, human; 6-residue linker added to the ubiquitin C-terminal end; Two ubiquitins joined covalently K48-G76; The results call the extended moiety distal, the methods call it proximal; also called K48-linked diubiquitin with Ub-EDGEGEE; source: made enzymatically (E1 from R&D Systems, E2-25K) from …

[6] = molecular target: T4, ubiquitin (human, UniProt P0CG48 1-76); test: as above; conditions: both partners purified
T4 construct: ubiquitin, human, the 76-residue cut product of the polyubiquitin precursor; source: E. coli Rosetta 2(DE3), untagged, purified (cation exchange, SEC)

[7] = molecular target: the molecule itself; test: crystal structure; hRpn13 (1–150) at 560 μM in 20 mM HEPES pH 7.5, 100 mM NaCl, 1 mM TCEP; microbatch-under-oil at 4 °C with 0.1 M sodium acetate pH 4.6, 22% PEG3350; one molecule per asymmetric unit, ENT at the interface of Pru molecules of the lattice; 1.85 Å

B1
EC50 [1]: 0.32 ± 0.02 µM

B2
EC50 [2]: 0.043 ± 0.007 µM | binding result [3]: binds | binding result [4]: binds | binding result [5]: binds | binding result [6]: binds

B3
binding result [7]: binds

B4
EC50 [1]: 87 ± 6 µM

B5
EC50 [1]: 637 ± 51 µM

B6
binding result [1]: binds
